In one experiment the target is T1, TF-TIGIT融合蛋白 (原核表达) (human (TIGIT part)).
T1 construct: also called TF-TIGIT蛋白; 原核表达的TF-TIGIT蛋白
T1 chain: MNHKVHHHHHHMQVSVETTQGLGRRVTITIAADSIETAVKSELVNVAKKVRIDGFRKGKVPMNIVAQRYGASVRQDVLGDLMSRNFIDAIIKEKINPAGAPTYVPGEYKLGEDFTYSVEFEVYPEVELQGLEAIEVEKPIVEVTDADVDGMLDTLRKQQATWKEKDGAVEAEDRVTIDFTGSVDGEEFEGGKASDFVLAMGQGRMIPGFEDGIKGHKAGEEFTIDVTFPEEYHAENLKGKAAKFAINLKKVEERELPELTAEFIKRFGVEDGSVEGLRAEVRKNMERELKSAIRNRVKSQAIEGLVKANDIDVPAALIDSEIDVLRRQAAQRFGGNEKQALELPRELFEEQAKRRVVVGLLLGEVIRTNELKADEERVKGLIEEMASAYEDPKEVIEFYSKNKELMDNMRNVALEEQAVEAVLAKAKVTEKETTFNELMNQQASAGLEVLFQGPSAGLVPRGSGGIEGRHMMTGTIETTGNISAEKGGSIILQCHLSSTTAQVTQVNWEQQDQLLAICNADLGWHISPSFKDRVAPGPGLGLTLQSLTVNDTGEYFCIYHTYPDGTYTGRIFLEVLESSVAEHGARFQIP
As to the kind of experiment: Western blot, 0.2 μg antigen per lane, primary antibody 0.2 µg/mL. Background: A western blot detects proteins with antibodies after separation by electrophoresis.

Experiment [1] has as its target T2, 人TIGIT (人体组织细胞膜上表达的TIGIT蛋白) (human, UniProt Q495A1 22-244).
T2 construct: whole, on cells
T2 sequence (looked up): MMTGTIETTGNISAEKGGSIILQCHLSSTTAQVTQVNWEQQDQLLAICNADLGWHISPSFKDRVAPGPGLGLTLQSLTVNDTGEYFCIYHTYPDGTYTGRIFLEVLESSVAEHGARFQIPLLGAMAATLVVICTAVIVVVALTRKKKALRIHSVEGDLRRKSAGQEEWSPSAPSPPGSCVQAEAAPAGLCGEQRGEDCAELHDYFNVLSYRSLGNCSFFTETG
The experiment is described as follows: immunohistochemistry on FFPE human tissue, primary antibody 3.5 μg/mL.

B1: 抗TIGIT单克隆抗体MJ12-30 (antibody, mouse IgG1, kappa, V domains shown)
VH: EVKLEQSGGVLVQPGGSRKLSCAASGFTFHSFGMHWVRQAPEKGLEWVAYISSGGSTIFYADTVKGRFTISRDNPKNTLFLQMTSLRSEDTAMYYCAGSDHGNLGYWGQGTTLTVSS
VL: DIVLTQSPLSLSVSLGDQASISCRSSQSILHSGGNTYLDWFLQRPGQSPKLLIYKVSNRISGVPDRFSGSGAGTDFTLKISRVEAEDLGVYYCFQGNHVPPTFGGGTKLEIKR
notes: full chains used here; also called 鼠抗人TIGIT单克隆抗体杂交瘤细胞系MJ12-30 (CGMCC No.45102) 分泌的抗体
For the molecule B1, the binding result (in the experiment with TF-TIGIT融合蛋白 (原核表达); in experiment [1]) was “binds” throughout.

For the origin of these results see patent CN114480298A (MEGEE TRANSF MEDICAL RESEARCH SUZHOU CO LTD, dated 2022).
